The values below come from patent publication US10155811B2, “APLNR modulators and uses thereof” (Regeneron Pharmaceuticals, Inc., priority 2013, dated 2018).

Assay [1] deals with T1, hAPLNR (Homo sapiens, UniProt P35414).
T1 sequence (P35414 1-380): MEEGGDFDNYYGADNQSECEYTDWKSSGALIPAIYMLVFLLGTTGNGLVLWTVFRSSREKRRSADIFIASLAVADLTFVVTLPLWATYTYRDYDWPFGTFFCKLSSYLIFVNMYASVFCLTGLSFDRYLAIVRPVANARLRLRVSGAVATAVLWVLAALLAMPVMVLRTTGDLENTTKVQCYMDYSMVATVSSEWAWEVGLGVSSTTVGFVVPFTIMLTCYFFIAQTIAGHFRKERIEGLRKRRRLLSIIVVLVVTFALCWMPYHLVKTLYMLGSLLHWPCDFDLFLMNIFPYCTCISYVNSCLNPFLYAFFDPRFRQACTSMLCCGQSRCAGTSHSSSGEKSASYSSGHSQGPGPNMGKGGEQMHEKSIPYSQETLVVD
Description: CRE assay of modified apelin peptides in HEK293/CRE-luc/hAPLNR cells. The assay is classed as cell-based. Also noted: expressed in transfected cells. The method, then:
Briefly, an HEK293 cell line was transfected to stably express the full-length human hAPLNR (amino acids 1-380 of accession number NP_005152.1), along with a luciferase reporter [cAMP response element (CRE,4X)-luciferase]. […] After 5 hours of incubation at 37° C. in 5% CO2, luminescence was measured following the addition of One Glo reagent (Promega, #E6051) using a Victor X instrument (Perkin Elmer). The data were fit by nonlinear regression to a 4-parameter logistic equation with Prism 5 software (GraphPad).

The subject of assay [2] is HEK293 parental cells. As to the kind of experiment: FACS binding to HEK293 parental cells. Particulars: Table 3; 10 μg/mL antibody; anti-mouse IgG Alexa 647. The protocol:
Binding ratios for human APLNR binding to purified anti-APLNR monoclonal antibodies were determined by a fluorescence-activated cell sorting (FACS) binding assay. […] The resulting stable cell lines, HEK293/CRE-luc/hAPLNR and HEK293/CRE-luc/MfAPLNR, were maintained in DMEM containing 10% FBS, NEAA, and penicillin/streptomycin with either 100 μg/mL Hygromycin B for hAPLNR cells or 500 μg/mL G418 for MfAPLNR cells.
For the FACS analysis, HEK293 parental, HEK293/CRE-luc/hAPLNR, and, HEK293/CRE-luc/mfAPLNR cells were dissociated using Enzyme Free Dissociation reagent (#S-004, Millipore, Billerica, Mass., USA) and 10^6 cells/well were plated onto 96-well v-bottom plates in PBS containing 1% FBS. […] Cells were then filtered and analyzed on Accuri Flow Cytometer (BD Biosciences, San Jose, Calif., USA). Unstained and secondary antibody alone controls were also tested for binding to all cell lines. […] Geometric mean (Geom. mean) of fluorescence for each antibody was then normalized to geometric mean of unstained cells to obtain relative binding of antibody (binding ratios) per each cell type: HEK293 (parental), HEK293/CRE-luc/hAPLNR and HEK293/CRE-luc/MfAPLNR.

Assay [3] deals with T1, hAPLNR. Description: retinal vascular development (RVD) model in humanized APLNR mouse pups. Also noted: from tissue; host or cells: developing retina of humanized APLNR mouse pups (75% C57BL6 / 25% Sv129), in vivo. Type of assay: in vivo. The protocol:
A retinal vascular development (RVD) model was used to evaluate the effects of an antagonistic anti-APLNR antibody on blood vessel outgrowth in the normal developing retina of mouse pups that were of a mixed background strain (75% C57BL6 and 25% Sv129) and homozygous for expression of human APLNR in place of mouse APLNR (humanized APLNR mice). Pups were subcutaneously injected on postnatal day 2 (P2) with either 50 mg/kg of an anti-APLNR antagonist antibody, H2aM9232N, or an irrelevant human Fc (hFc) control. Reagents were masked and labeled as Solution A and Solution B to prevent experimenter bias. At postnatal day 5, tissue samples were collected and then fixed in PBS containing 4% paraformaldehyde. Fixed tissue samples were washed with PBS three times for 15 minutes, and subsequently stained with GS Lectin I (Vector Laboratories, #FL-1101) diluted 1:200 in 1×PBS containing 1% BSA in 0.25% Triton-X 100 overnight at 25° C. to visualize retinal vasculature. The following day, stained samples were rinsed with PBS three times for 15 minutes each, flat-mounted onto slides, and coverslips were subsequently mounted using Prolong Gold (Invitrogen, #P36930). Images were taken at 20 times magnification using an epi-fluorescent microscope (Nikon Eclipse 80). The vascularized areas in the retina were measured from acquired images from this assay using Adobe Photoshop CS6 extended. Statistical differences between the results obtained from the IgG control antibody and H2aM9232N treated samples were assessed using a two tailed, unpaired Student T-test (**, p<0.001). Only after retinal vasculature area measurements and statistical analysis were completed, the sample identities were unmasked.

The target of assay [4] is T1, hAPLNR. As to the kind of experiment: CRE-luciferase cyclic AMP assay, activation of hAPLNR (inhibition of Forskolin-induced cAMP) in HEK293/CRE-luc/hAPLNR cells. The assay is classed as cell-based. Also noted: expressed in transfected cells. Particulars: without Apelin, % of maximum Apelin activation; for % Activation at 100 nM mAb (at 10 uM Forskolin): Table 6A. The method, then:
The ability of anti-APLNR antibodies to activate hAPLNR-mediated cell signaling was measured using a cyclic AMP assay. The hAPLNR is a 7-transmembrane G-protein coupled receptor (GPCR).
(§1) The resulting cell line, HEK293/CRE-luc/hAPLNR, was maintained in DMEM containing 10% FBS, NEAA, pencillin/streptomycin, and 100 μg/mL Hygromycin B.
(§2) Testing of antibodies included a no antibody control.
(§3) The results of all assays were analyzed using nonlinear regression (4-parameter logistics) within Prism 5 software (GraphPad).

The target in assay [5] is T1, hAPLNR. As to the kind of experiment: CRE-luciferase cyclic AMP assay, inhibition of hAPLNR in the presence of 100 ρM Apelin in HEK293/CRE-luc/hAPLNR cells. Particulars: Table 6C. Also noted: expressed in transfected cells. Type of assay: cell-based. The method, then: as §1, §2, §3

Where “and” joins values, the source holds several entries; their conditions need not be identical. Identical values can stand only once. Entries after “also recorded” stand apart in the source; their conditions may differ.

In the case of `CSCC[C@H](NC(=O)[C@@H]1CCCN1C(=O)CNC(=O)[C@H](CCCCN)NC(=O)[C@H](Cc1c[nH]cn1)NC(=O)[C@H](CO)NC(=O)[C@H](CC(C)C)NC(=O)[C@H](CCCNC(=N)N)NC(=O)[C@@H]1CCCN1C(=O)[C@H](CCCNC(=N)N)NC(=O)[C@@H](N)CCC(N)=O)C(=O)N1CCC[C@H]1C(=O)N[C@@H](Cc1ccccc1)C(=O)NCC(=O)NCC(=O)NCC(=O)NCC(=O)NCC(=O)O` [Apelin-13 + 5G], in assay [1], the “efficacy in the CRE assay relative to apelin-13” value is given as “retain full efficacy”.

B1: H2aM9232N: antagonistic anti-APLNR antibody, HCVR/LCVR SEQ ID NO: 98/106, mouse IgG2a Fc (antibody, V domains shown)
VH: QVKLVESGGGVVQPGRSLRLSCAASGFTFSNYVIHWVRQAPGKGLEWVAVIWYDGSNKYYADSVKGRFTISRDNSKNTLYLQMNSLRAEDTAVYYCARDRVVRGVDYYYYYGLDVWGQGTSVTVSS
VL: EIVMTQSPATLSVSPGERATLSCRASQSVRSNLAWYQQKPGQAPRLLIYGASSRATGIPARFSGTGSGTEFTLTISSLQSDDFAVYYCQQYNKWPRTFGQGTKVEIK
modifications: mouse IgG2a Fc
For the molecule B1, the “Binding Ratio of Geom. Mean to Unstained Cells, HEK293 Parental” value in assay [2] is listed as 6. In assay [3] (group mean, 50 mg/kg subcutaneous at P2, measured at P5), the “Retinal blood vessel outgrowth (mm^2), MEAN” value was 2.84 mm^2. Moreover, in assay [3] (individual eyes (OD/OS), 50 mg/kg subcutaneous at P2, measured at P5, 50 mg/kg), the “Retinal blood vessel outgrowth (mm^2)” value was 2.49 mm^2 and 3.04 mm^2 and 3.57 mm^2 and 3.32 mm^2 and 2.23 mm^2 and 2.36 mm^2. In assay [3] (single subcutaneous injection 50 mg/kg, postnatal day 5), the “mean reduction in retinal blood vessel outgrowth compared to control (hFc)” value is given as “approximately 30%”. Moreover, the “% Activation at 100 nM mAb (at 10 uM Forskolin)” value in assay [4] is “No Activation”. The “% Activation at 500 nM mAb (at […] Forskolin)” value in assay [4] (Table 6B) is “did not demonstrate any measurable activation; also recorded: No Activation”.

B2: H2aM9222N: anti-APLNR antibody, HCVR/LCVR SEQ ID NO: 34/42, mouse IgG2a Fc (antibody, V domains shown)
VH: EVQLVESGGGLVQPGGSLRLSCAASGFTFSNYWMSWVRQAPGKGLEWVANIKQDGSERYYVGSVKGRFTISRGDAENSLYLQMNSLRAEDTAVYYCARDRFGYSAYDKGVRYYYGMDVWGQGTTVTVSS
VL: DIQMTQSPSSLSASVGDRVTITCRASQGIRNDLGWYQQKPGKAPKRLIYAASSLQSGVPSRFSGSGSGTEFTLTISSLQPEDFATYYCLQHNSYPRTFGQGTKVEIK
modifications: mouse IgG2a Fc
For the molecule B2, the “Binding Ratio of Geom. Mean to Unstained Cells, HEK293 Parental” value in assay [2] is 2. For the same molecule, in assay [5], the “% Inhibition at 100 nM antibody, in the presence of 100 ρM Apelin (at 5 μM Forskolin)” value was 11% (IC). The “% Activation at 100 nM mAb (at 10 uM Forskolin)” value in assay [4] is “No Activation”.
